The source of these data is the supplement of paper PMC5998384.

Series [1] deals with HeLa Kyoto. Put plainly: solubility change mitosis vs G1/S (difference of NP-40 vs SDS log2 ratios) (log2 ratio difference); higher = more soluble in mitosis.
The subject of series [2] is HeLa Kyoto. Put plainly: solubility in G1/S (NP-40 vs SDS abundance) (log2 ratio); higher = more soluble. As to conditions: cell cycle stage: G1/S.
Series [3] concerns HeLa Kyoto. Put plainly: melting temperature (median over replicates), in situ; higher = more thermally stable.
The subject of series [4] is HeLa Kyoto. Put plainly: thermal stability score vs G1/S (z-score of summed log2 fold changes over temperatures); higher = more thermally stable than in G1/S.
Setting [5] is: cell cycle stage: early G1 (4.5 h after nocodazole release).
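For melting temperature (median over replicates), in situ in this document: HeLa Kyoto cells synchronized by double thymidine or nocodazole block, proteins quantified by TMT10plex mass spectrometry, three independent biological replicates.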
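For solubility change mitosis vs G1/S (difference of NP-40 vs SDS log2 ratios) in this document: synchronized HeLa Kyoto cells (double thymidine block for G1/S, nocodazole release for mitosis), protein amounts in NP-40 versus SDS lysates quantified by mass spectrometry, three biological replicates.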
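For solubility in G1/S (NP-40 vs SDS abundance) in this document: HeLa Kyoto cells arrested at G1/S by double thymidine block, proteins quantified by TMT10plex mass spectrometry in mild NP-40 versus SDS extracts, three biological replicates.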
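For thermal stability score vs G1/S (z-score of summed log2 fold changes over temperatures) in this document: synchronized HeLa Kyoto cells, proteins quantified by TMT10plex mass spectrometry, three biological replicates, mitosis taken 0.5 h after nocodazole release, G1/S directly after double thymidine block.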

“MDWVMKHNGPNDASDGTVRLRGLPFGCSKEEIVQFFQGLEIVPNGITLTMDYQGRSTGEAFVQFASKEIAENALGKHKERIGHRYIEIFRSSRSEIKGFYDPPRRLLGQRPGPYDRPIGGRGGYYGAGRGSMYDRMRRGGDGYDGGYGGFDDYGGYNNYGYGNDGFDDRMRDGRGMGGHGYGGAGDASSGFHGGHFVHMRGLPFRATENDIANFFSPLNPIRVHIDIGADGRATGEADVEFVTHEDAVAAMSKDKNNMQHRYIELFLNSTPGGGSGMGGSGMGGYGRDGMDNQGGYGSVGRMGMGNNYSGGYGTPDGLGGYGRGGGGSGGYYGQGGMSGGGWRGMY [HNRNPH3]”: the “solubility change mitosis (log2)” value in the series on HeLa Kyoto [1] turned out to be 0.282. The “solubility in G1/S (log2)” value in the series on HeLa Kyoto [2] was -0.0906. Further, the figures for the melting temperature with HeLa Kyoto [3] (cell cycle stage: G1/S) and in the series with HeLa Kyoto [3] (cell cycle stage: mitosis) were 45.4 °C and 47.7 °C, respectively. Besides, the figures for the thermal stability score in the series with HeLa Kyoto [4] (setting [5]) and in the series on HeLa Kyoto [4] (cell cycle stage: mitosis) were 3.81 and 9.58, respectively.
Regarding “MEAAAVTVTRSATRRRRRQLQGLAAPEAGTQEEQEDQEPRPRRRRPGRSIKDEEEETVFREVVSFSPDPLPVRYYDKDTTKPISFYLSSLEELLAWKPRLEDGFNVALEPLACRQPPLSSQRPRTLLCHDMMGGYLDDRFIQGSVVQTPYAFYHWQCIDVFVYFSHHTVTIPPVGWTNTAHRHGVCVLGTFITEWNEGGRLCEAFLAGDERSYQAVADRLVQITQFFRFDGWLINIENSLSLAAVGNMPPFLRYLTTQLHRQVPGGLVLWYDSVVQSGQLKWQDELNQHNRVFFDSCDGFFTNYNWREEHLERMLGQAGERRADVYVGVDVFARGNVVGGRFDTDKSLELIRKHGFSVALFAPGWVYECLEKKDFFQNQDKFWGRLERYLPTHSICSLPFVTSFCLGMGARRVCYGQEEAVGPWYHLSAQEIQPLFGEHRLGGDGRGWVRTHCCLEDAWHGGSSLLVRGVIPPEVGNVAVRLFSLQAPVPPKIYLSMVYKLEGPTDVTVALELTTGDAGSCHIGGISVLNAETSSRHSLRPLRVPPTKLARWVGRCGRQLSGGWVQHCYEVSLRGCLLLDLLVCFSRPPGSREEESFTCRLGEIQVVDAASLLAPLPQVQAVTISHIRWQPSASEREGPPALLQLSCTLHWSFLLSQVRCFRIHCWGGMSDDSPGRELPRPEMPMFLGLAFATQYRIVDLLVEAAGPGQDRRMEFLVEPVPKEGFRVPQAEWGRAVLLYSAPA [ENGASE]”, the “solubility change mitosis (log2)” value in the series on HeLa Kyoto [1] was -0.0912. Further, the “solubility in G1/S (log2)” value with HeLa Kyoto [2] was -0.179. Also, the melting temperature worked out at 53.6 °C with HeLa Kyoto [3] (cell cycle stage: G1/S) and 53.4 °C with HeLa Kyoto [3] (cell cycle stage: mitosis). Besides, the thermal stability score was 0.438 with HeLa Kyoto [4] (setting [5]) and -0.925 with HeLa Kyoto [4] (cell cycle stage: mitosis).
With “MEADASVDMFSKVLEHQLLQTTKLVEEHLDSEIQKLDQMDEDELERLKEKRLQALRKAQQQKQEWLSKGHGEYREIPSERDFFQEVKESENVVCHFYRDSTFRCKILDRHLAILSKKHLETKFLKLNVEKAPFLCERLHIKVIPTLALLKDGKTQDYVVGFTDLGNTDDFTTETLEWRLGSSDILNYSGNLMEPPFQNQKKFGTNFTKLEKKTIRGKKYDSDSDDD [TXNDC9]”, the “solubility change mitosis (log2)” value with HeLa Kyoto [1] came out at 0.0132. Besides, the “solubility in G1/S (log2)” value with HeLa Kyoto [2] is 0.273. The melting temperature in the series with HeLa Kyoto [3] (cell cycle stage: G1/S) turned out to be 52.4 °C; in the series with HeLa Kyoto [3] (cell cycle stage: mitosis), 52.7 °C. In addition, the thermal stability score in the series with HeLa Kyoto [4] (setting [5]) is 1; in the series with HeLa Kyoto [4] (cell cycle stage: mitosis), 0.636.
“MEAERGPERRPAERSSPGQTPEEGAQALAEFAALHGPALRASGVPERYWGRLLHKLEHEVFDAGEVFGIMQVEEVEEEEDEAAREVRKQQPNPGNELCYKVIVTRESGLQAAHPNSIFLIDHAWTCRVEHARQQLQQVPGLLHRMANLMGIEFHGELPSTEAVALVLEEMWKFNQTYQLAHGTAEEKMPVWYIMDEFGSRIQHADVPSFATAPFFYMPQQVAYTLLWPLRDLDTGEEVTRDFAYGETDPLIRKCMLLPWAPTDMLDLSSCTPEPPAEHYQAILEENKEKLPLDINPVVHPHGHIFKVYTDVQQVASSLTHPRFTLTQSEADADILFNFSHFKDYRKLSQERPGVLLNQFPCENLLTVKDCLASIARRAGGPEGPPWLPRTFNLRTELPQFVSYFQQRERWGEDNHWICKPWNLARSLDTHVTKSLHSIIRHRESTPKVVSKYIESPVLFLREDVGKVKFDIRYIVLLRSVRPLRLFVYDVFWLRFSNRAFALNDLDDYEKHFTVMNYDPDVVLKQVHCEEFIPEFEKQYPEFPWTDVQAEIFRAFTELFQVACAKPPPLGLCDYPSSRAMYAVDLMLKWDNGPDGRRVMQPQILEVNFNPDCERACRYHPTFFNDVFSTLFLDQPGGCHVTCLV [TTLL12]”: the “solubility change mitosis (log2)” value in the series on HeLa Kyoto [1] is -0.125. Further, the “solubility in G1/S (log2)” value with HeLa Kyoto [2] turned out to be 0.0605. Also, the melting temperature is 47.6 °C in the series on HeLa Kyoto [3] (cell cycle stage: G1/S) and 48.4 °C in the series with HeLa Kyoto [3] (cell cycle stage: mitosis). Besides, the thermal stability score is 2 in the series on HeLa Kyoto [4] (setting [5]) and 3.92 in the series with HeLa Kyoto [4] (cell cycle stage: mitosis).
Take “MEASWRQVAGGRGRSRGRATAAPSGNGVHLRGAGGGREKGSVGAVPSGTSPGGVATTAAAGSRHSPAGSQALQTTAASELMSQKKFEEIKKANQAAARKLVEEQFSSSSEEGDEDFEGKQGKILANTFITYTTQTDGDTRELERTKQYVNEAFQAGAMTCLICIASVKRNQAVWSCSGCFCIFHMPCIQKWAKDSQFLVSSVTDDDFGKKDCPWPCPKCRFEYKRSETPSRYYCYCGKVEDPPLDPWLVPHSCGQVCEREFKPPCGHKCLLLCHPGPCPPCPKMVTTTCYCKKAKPIPRRCSAKEWSCQLPCGQKLLCGQHKCENPCHAGSCQPCPRVSRQKCVCGKKVAERSCASPLWHCDQVCGKTLPCGNHTCEQVCHVGACGECPRSGKRFCPCQKSKFSLPCTEDVPTCGDSCDKVLECGIHRCSQRCHRGPCETCRQEVEKHCRCGKHTKRMPCHKPYLCETKCVKMRDCQKHQCRRKCCPGNCPPCDQNCGRTLGCRNHKCPSVCHRGSCYPCPETVDVKCNCGNTKVTVPCGRERTTRPPKCKEQCSRPPTCHHTSQEKHRCHFGSCPPCHQPCQKVLEKCGHLCPAPCHDQALIKQTGRHQPTGPWEQPSEPAFIQTALPCPPCQVPIPMECLGKHEVSPLPCHAVGPYSCKRVCGRILDCQNHTCMKECHKVTKTDGCTGKNKAGPECLHCEEGCSKSRPLGCLHPCILRCHPGECPPCVQMLRIKCHCKITSLYVECRKITTADVNEKNLLSCCKNQCPKELPCGHRCKEMCHPGECPFNCNQKVKLRCPCKRIKKELQCNKVRENQVSIECDTTCKEMKRKASEIKEAEAKAALEEEKRRQQAELEAFENRLKGRRKKNRKRDEVAVELSLWQKHKYYLISVCGVVVVVFAWYITHDVN [NFXL1]”: the “solubility change mitosis (log2)” value in the series with HeLa Kyoto [1] worked out at 0.0441. Moreover, the “solubility in G1/S (log2)” value with HeLa Kyoto [2] is -0.509. In addition, the values for the melting temperature in the series with HeLa Kyoto [3] (cell cycle stage: G1/S) and in the series on HeLa Kyoto [3] (cell cycle stage: mitosis) were 50.2 °C and 50.5 °C, respectively. Besides, the thermal stability score was found to be 1.02 in the series on HeLa Kyoto [4] (setting [5]) and 1.56 with HeLa Kyoto [4] (cell cycle stage: mitosis).
